Earlier results on 1 substance are cited in PMC10673186.

For the data set, the target named is SIRPα (Homo sapiens) (UniProt P78324).
Sequence of UniProt P78324 (P78324 31-373): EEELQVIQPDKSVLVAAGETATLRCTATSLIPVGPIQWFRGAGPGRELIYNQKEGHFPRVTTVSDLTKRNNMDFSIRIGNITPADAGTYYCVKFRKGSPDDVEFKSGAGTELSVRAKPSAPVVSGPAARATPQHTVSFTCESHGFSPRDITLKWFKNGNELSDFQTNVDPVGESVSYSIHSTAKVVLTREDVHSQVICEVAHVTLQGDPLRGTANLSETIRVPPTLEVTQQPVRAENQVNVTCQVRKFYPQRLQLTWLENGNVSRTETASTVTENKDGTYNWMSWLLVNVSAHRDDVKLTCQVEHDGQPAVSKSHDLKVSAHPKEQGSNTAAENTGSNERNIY

A word on the Kd: it is a measure of binding affinity in units of concentration. Consider CD47 (from UniProt Q08722), for which the dissociation constant Kd is 1000 nM.
